Test results: IntAct's records for PubMed 12626503

B1: Rho guanine nucleotide exchange factor 7 (Mus musculus), Q9ES28-2 (parent)
chain: MNSAEQTVTWLITLGVLESPKKTISDPEVFLQASLKDGVVLCRLLERLLPGTIEKVYPEPRNESECLSNIREFLRACGASLRLETFDANDLYQGQNFNKVLSSLVTLNKVTADIGLGSDSVCARPSSHRIKSFDSLGSQSSHSRTSKLLQSQYRSLDMTDNTNSQLVVRAKFNFQQTNEDELSFSKGDVIHVTRVEEGGWWEGTHNGRTGWFPSNYVREIKPSEKPVSPKSGTLKSPPKGFDTTAINKSYYNVVLQNILETEHEYSKELQSVLSTYLRPLQTSDKLSSANTSYLMGNLEEISSFQQVLVQSLEECTKSPEAQQRVGGCFLSLMPQMRTLYLAYCANHPSAVSVLTEHSEDLGEFMETKGASSPGILVLTTGLSKPFMRLDKYPTLLKELERHMEDYHPDRQDIQKSMTAFKNLSAQCQEVRKRKELELQILTEPIRSWEGDDIKTLGSVTYMSQVTIQCAGSEEKNERYLLLFPNLLLMLSASPRMSGFIYQGKLPTTGMTITKLEDSENHRNAFEISGSMIERILVSCTSQQDLHEWVEHLQKQTKVTSVSNPTIKPHSVPSHTLPSHPLTPSSKHADSKPVALTPAYHTLPHPSHHGTPHTTISWGPLEPPKTPKPWSLSCLRPAPPLRPSAALCYKEDLSKSPKTMKKLLPKRKPERKPSDEEFAVRKSTAALEEDAQILKVIEAYCTSAKTRQTLNSSSRKESAPQVLLPEEEKIIVEETKSNGQTVIEEKSLVDTVYALKDEVQELRQDNKKMKKSLEEEQRARKDLEKLVRKVLKNMNDPAWDETNL
B2: Rho guanine nucleotide exchange factor 7 (Mus musculus), Q9ES28-2 (parent)
chain: B1 chain
partner: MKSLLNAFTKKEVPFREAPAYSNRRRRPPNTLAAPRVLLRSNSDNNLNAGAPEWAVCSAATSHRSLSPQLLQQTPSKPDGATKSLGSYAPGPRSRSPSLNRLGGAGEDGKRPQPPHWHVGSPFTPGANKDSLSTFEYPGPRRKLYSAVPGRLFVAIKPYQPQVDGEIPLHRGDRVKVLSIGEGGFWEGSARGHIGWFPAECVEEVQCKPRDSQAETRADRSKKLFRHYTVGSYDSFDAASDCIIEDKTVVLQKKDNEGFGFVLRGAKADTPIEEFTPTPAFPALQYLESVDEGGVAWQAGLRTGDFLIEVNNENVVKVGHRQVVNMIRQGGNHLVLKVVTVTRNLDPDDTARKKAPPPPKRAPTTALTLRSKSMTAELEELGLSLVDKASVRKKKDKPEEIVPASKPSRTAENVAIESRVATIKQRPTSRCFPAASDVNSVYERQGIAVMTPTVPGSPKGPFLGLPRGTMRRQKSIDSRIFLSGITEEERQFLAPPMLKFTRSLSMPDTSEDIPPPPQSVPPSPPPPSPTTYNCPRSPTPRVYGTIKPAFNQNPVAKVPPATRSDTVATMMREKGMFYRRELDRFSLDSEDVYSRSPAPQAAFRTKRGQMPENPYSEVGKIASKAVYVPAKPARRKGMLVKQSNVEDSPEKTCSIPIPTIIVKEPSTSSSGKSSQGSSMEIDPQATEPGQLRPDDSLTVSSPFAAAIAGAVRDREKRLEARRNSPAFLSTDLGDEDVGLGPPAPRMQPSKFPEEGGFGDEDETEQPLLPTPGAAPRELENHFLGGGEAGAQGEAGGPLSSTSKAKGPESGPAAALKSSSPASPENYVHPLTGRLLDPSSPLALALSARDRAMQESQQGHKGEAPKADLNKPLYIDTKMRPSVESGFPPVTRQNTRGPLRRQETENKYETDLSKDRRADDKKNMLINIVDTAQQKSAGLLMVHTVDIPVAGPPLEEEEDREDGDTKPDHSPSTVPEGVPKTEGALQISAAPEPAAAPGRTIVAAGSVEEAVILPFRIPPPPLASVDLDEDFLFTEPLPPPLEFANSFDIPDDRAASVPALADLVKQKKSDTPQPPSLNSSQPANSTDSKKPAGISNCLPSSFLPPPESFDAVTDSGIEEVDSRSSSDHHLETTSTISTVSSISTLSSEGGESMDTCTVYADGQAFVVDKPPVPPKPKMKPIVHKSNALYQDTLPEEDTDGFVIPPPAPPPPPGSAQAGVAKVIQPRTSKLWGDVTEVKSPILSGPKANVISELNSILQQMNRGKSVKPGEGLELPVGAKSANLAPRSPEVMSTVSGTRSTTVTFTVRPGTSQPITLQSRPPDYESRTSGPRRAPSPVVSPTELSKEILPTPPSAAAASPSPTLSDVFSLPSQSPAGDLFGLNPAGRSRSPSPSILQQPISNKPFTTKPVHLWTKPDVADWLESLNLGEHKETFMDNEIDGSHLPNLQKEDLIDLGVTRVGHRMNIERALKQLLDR

Variants of: B1
Conditions: with shan1_rat Shank1, Q9WV48
shan1_rat Shank1, Q9WV48, sequence (Q9WV48 whole entry): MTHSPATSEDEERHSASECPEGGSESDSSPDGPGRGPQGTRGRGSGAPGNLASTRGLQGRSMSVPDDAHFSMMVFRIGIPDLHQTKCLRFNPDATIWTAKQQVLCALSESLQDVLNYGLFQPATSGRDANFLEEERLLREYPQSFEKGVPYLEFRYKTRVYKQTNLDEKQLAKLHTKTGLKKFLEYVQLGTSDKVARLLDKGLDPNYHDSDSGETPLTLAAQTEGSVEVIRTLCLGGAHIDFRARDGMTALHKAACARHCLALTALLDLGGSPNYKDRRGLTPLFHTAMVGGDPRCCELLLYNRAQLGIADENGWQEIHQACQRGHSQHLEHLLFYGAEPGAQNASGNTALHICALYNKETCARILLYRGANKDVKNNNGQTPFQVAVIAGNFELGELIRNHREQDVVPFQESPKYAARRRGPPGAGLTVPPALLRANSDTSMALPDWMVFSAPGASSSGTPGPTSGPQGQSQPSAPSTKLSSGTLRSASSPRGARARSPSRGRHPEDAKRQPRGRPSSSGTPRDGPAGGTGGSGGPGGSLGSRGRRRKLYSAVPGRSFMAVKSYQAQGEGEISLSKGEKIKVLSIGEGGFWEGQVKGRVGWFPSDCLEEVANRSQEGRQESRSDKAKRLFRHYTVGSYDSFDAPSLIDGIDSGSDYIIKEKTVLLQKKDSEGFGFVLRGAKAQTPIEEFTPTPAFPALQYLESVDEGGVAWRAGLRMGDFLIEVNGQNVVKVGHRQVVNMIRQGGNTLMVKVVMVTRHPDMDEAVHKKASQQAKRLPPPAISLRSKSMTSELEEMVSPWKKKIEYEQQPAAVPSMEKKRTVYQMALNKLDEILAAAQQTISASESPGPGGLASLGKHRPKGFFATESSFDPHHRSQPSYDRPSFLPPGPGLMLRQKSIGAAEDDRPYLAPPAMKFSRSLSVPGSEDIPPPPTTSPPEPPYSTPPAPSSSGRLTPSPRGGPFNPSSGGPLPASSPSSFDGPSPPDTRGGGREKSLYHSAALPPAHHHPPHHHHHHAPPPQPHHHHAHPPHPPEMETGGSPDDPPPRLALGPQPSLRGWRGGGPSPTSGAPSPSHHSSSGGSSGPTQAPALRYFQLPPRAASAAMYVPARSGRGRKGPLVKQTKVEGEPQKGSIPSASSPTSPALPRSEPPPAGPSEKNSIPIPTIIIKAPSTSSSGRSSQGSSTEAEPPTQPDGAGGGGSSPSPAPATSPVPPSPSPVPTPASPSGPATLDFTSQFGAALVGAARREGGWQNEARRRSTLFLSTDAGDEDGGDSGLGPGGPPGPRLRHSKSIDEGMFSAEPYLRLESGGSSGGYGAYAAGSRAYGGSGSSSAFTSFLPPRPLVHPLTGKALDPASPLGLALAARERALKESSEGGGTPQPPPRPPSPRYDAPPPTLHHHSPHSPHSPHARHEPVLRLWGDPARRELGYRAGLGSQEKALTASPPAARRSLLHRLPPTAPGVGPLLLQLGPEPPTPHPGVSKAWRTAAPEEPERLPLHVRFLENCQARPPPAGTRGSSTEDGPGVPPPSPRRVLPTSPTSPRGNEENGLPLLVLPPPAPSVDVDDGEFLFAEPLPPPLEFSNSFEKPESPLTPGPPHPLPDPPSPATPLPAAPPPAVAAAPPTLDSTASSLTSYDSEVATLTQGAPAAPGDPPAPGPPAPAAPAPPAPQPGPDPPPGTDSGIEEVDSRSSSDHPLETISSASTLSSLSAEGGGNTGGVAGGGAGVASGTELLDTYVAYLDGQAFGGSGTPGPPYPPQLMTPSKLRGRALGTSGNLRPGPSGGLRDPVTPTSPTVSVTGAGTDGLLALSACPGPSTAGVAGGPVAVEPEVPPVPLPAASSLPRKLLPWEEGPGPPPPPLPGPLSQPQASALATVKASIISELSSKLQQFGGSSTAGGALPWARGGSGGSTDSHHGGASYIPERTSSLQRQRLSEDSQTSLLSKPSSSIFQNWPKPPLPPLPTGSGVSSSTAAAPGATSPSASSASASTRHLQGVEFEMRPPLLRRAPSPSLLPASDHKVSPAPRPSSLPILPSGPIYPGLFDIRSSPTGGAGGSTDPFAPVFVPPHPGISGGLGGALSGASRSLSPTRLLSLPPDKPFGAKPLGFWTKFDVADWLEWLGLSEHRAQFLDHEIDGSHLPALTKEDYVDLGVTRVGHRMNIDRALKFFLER

L646A was tested. Which “effect of a mutation on the interaction” value did it give?
The value was “disrupting interaction”.

Variants of: B2
Conditions: with shan2_rat Shank2, Q9QX74

Which “effect of a mutation on the interaction” value does the source give for L646A here?
The value was “disrupting interaction”.
